Here are results for five molecules from article doi:10.1101/694695 (bioRxiv, 2019).

First the molecules themselves.
B2: Ec Pch2^EQ (E159Q), purified hexamer (enzyme, E. coli MS115-1, UniProt D7Y2H4 1-311, looked up)
chain: MNVKPSLDELFERRINFPDFEPQERLARLVGLDEHKDRLSKILGLLVNPYGIQEWAKKYHPDARAAVDTVLRRPPLVVLAGDVGSGKTELAETIGDAVARQEDIDITLYPLSLATRGQGRVGEMTQLVSAAFDYTIEAADKLKNTNGKARGAVLLLIDQADALAQSRENAQMHHEDRAGVNAFIRGIDRIANQKLPAAVLMCTNRLKALDPAVQRRAAEILTFSRPNDEQRHYLLHSKLTGLGLNSTAVEELVRLTGPRDPNSPGFTFSDITQRLIPSIILAAYPYNAVSVHSALQVVNKMTPTPAFIDRQ

Read-outs that look alike come from different tables or passages of the source.

The target in data set [1] is Pa CdnD (purified, in complexes with HORMA proteins) (P. aeruginosa ATCC27853) (UniProt P0DTF7). The experiment in a line: SEC-MALS. In general terms: In gel filtration, larger molecules generally elute earlier.
Pa CdnD (purified, in complexes with HORMA proteins) (P. aeruginosa ATCC27853), sequence (P0DTF7 whole entry, one chain of several): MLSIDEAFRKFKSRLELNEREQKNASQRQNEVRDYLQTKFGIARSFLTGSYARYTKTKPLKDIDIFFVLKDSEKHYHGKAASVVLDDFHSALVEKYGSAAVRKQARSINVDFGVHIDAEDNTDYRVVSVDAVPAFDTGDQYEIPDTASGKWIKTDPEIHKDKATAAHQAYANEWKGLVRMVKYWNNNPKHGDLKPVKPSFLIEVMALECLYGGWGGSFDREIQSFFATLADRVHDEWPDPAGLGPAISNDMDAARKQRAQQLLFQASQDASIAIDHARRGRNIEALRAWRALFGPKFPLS
In data set [2] the target is Pa HORMA2, untagged, coexpressed (P. aeruginosa ATCC27853). The experiment in a line: SEC-MALS.
Pa HORMA2, untagged, coexpressed (P. aeruginosa ATCC27853), sequence (P0DTF6 whole entry): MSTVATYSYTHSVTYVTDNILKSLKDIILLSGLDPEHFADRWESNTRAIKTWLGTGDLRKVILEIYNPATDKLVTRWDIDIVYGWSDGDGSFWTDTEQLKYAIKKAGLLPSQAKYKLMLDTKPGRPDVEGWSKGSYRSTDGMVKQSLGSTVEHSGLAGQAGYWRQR
The target in data set [3] is Rhizobiales sp. Pch2 (Rhizobiales sp.). The experiment in a line: crystal structure.
Data set [4] addresses B2. The experiment in a line: crystal structure.
Data set [5] addresses T1, Ec CdnC (purified, coexpressed with His6-HORMA) (E. coli MS115-1, UniProt D7Y2H2 1-321).
T1 sequence (looked up): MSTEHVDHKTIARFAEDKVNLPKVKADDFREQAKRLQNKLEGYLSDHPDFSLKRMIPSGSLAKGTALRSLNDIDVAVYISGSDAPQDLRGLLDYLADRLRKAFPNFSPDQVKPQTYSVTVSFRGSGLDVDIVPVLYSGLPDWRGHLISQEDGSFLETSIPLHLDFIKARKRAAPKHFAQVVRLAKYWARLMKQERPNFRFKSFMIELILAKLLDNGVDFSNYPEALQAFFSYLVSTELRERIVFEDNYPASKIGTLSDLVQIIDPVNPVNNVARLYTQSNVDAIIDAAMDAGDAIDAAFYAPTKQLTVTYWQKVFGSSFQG
The experiment in a line: SEC-MALS.

The target of data set [6] is T2, Ec CdnC:HORMA complex (purified) (E. coli MS115-1, UniProt D7Y2H2 1-321; D7Y2H3 1-172).
T2 sequence (looked up) 1: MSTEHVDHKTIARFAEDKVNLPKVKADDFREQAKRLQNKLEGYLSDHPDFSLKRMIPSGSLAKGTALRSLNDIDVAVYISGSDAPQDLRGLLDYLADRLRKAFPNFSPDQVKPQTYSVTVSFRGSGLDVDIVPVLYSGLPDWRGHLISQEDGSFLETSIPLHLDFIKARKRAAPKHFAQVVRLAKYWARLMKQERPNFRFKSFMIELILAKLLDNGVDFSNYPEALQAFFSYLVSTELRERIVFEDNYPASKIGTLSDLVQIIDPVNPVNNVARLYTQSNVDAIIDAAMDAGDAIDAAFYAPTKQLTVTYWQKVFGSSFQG
T2 sequence (looked up) 2: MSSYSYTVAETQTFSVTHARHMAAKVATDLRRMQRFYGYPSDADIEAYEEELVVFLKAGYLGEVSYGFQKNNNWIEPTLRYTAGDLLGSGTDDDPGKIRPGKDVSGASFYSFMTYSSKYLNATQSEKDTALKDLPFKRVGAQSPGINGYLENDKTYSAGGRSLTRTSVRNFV
The experiment in a line: SEC-MALS.

The data set “SEC-MALS” concerns the molecule itself. The experiment in a line: SEC-MALS.

As usually defined, the stoichiometry N is a count of units in the complex or per binding partner. For “Pa HORMA1 (purified, SEC-MALS samples) (natural protein)”, the values for the stoichiometry N in data set [1] (scale: CdnD per HORMA1 in the 2:1:1 CdnD:HORMA1:HORMA2 complex) and in data set [2] (scale: HORMA1 per HORMA2 in the 2:1:1 CdnD:HORMA1:HORMA2 complex) were 2 and 1, respectively. In data set [2], this molecule gave a stoichiometry N (HORMA1:HORMA2) of 1.
With “Pa HORMA2, untagged, coexpressed (natural protein)”, the values for the stoichiometry N in data set [1] and in data set [1] (scale: CdnD per HORMA2 in the 2:1:1 CdnD:HORMA1:HORMA2 complex) were 1 CdnD:HORMA2 and 2, respectively.
As for Rhizobiales sp. Pch2 (enzyme), the stoichiometry N in data set [3] came out at 6.

B1: Ec HORMA (purified, coexpressed with CdnC) (natural protein, E. coli MS115-1, UniProt D7Y2H3 1-172, looked up)
chain: MSSYSYTVAETQTFSVTHARHMAAKVATDLRRMQRFYGYPSDADIEAYEEELVVFLKAGYLGEVSYGFQKNNNWIEPTLRYTAGDLLGSGTDDDPGKIRPGKDVSGASFYSFMTYSSKYLNATQSEKDTALKDLPFKRVGAQSPGINGYLENDKTYSAGGRSLTRTSVRNFV
Turning to B1, the binding result in data set [4] is “binds”. Also, in data set [5], the “stoichiometry N” value was 1 CdnC:HORMA.
As for B2, the “stoichiometry N” value in data set [6] was 6 Pch2^EQ chains per CdnC:HORMA; in “SEC-MALS” it was 6.
